Reference: paper PMC3172300, “Modulation of Catalytic Activity in Multi-Domain Protein Tyrosine Phosphatases” (PLoS ONE, 2011)
Where a chain is given by its changes, count along the chain named. Like-named read-outs stand apart in the source and are kept apart here.

T1: DLAR D1D2 (Drosophila melanogaster, UniProt P16621)
T1 construct: DLAR 1448-2029; His tag (pET-15b or pET-22b); made in house; host or cells: E. coli BL21(DE3)
T1 sequence (P16621 1448-2029): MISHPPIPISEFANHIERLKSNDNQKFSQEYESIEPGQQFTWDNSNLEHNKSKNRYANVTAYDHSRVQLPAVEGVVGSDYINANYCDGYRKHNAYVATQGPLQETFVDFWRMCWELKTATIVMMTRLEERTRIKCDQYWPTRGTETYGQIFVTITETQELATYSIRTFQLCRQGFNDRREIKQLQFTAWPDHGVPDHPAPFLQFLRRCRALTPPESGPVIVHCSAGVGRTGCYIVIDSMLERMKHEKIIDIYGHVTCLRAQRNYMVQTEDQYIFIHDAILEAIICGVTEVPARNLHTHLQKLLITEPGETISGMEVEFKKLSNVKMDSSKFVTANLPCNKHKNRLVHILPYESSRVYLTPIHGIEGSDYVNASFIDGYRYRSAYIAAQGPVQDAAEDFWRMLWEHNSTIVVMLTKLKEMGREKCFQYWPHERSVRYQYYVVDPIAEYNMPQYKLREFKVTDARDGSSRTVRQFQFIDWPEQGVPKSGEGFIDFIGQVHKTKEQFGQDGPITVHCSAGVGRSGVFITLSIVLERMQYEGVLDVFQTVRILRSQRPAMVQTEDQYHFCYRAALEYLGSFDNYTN

T2: DLAR D1HSS D2 (Drosophila melanogaster, UniProt P16621, C1670S)
T2 construct: DLAR 1448-2029; His tag (pET-15b or pET-22b); made in house; host or cells: E. coli BL21(DE3)
T2 sequence (P16621 1448-2029 C1670S): T1 sequence (P16621 1448-2029) with C223S

T3: DLAR D1 (Drosophila melanogaster, UniProt P16621)
T3 construct: DLAR 1448-1746; His tag (pET-15b or pET-22b); made in house; host or cells: E. coli BL21(DE3)
T3 sequence (P16621 1448-1746): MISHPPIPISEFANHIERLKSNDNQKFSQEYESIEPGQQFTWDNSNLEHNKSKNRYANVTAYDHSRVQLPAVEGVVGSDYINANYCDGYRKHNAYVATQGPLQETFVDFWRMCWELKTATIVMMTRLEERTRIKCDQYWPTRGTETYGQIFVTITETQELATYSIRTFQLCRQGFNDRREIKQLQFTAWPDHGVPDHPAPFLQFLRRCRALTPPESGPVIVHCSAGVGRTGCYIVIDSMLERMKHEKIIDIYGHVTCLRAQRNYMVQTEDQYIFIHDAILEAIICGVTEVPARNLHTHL

B1: PTP99A D1 (Drosophila melanogaster) (protein)
chain: DEIRAAVPVNEFAKHVASLHADGDIGFSREYEAIQNECISDDLPCEHSQHPENKRKNRYLNITAYDHSRVHLHPTPGQKKNLDYINANFIDGYQKGHAFIGTQGPLPDTFDCFWRMIWEQRVAIIVMITNLVERGRRKCDMYWPKDGVETYGVIQVKLIEEEVMSTYTVRTLQIKHLKLKKKKQCNTEKLVYQYHYTNWPDHGTPDHPLPVLNFVKKSSAANPAEAGPIVVHCSAGVGRTGTYIVLDAMLKQIQQKNIVNVFGFLRHIRAQRNFLVQTEEQYIFLHDALVEAIASGETNLMAEQVEE
B2: PTP99A D1 D2 (Drosophila melanogaster) (protein)
chain: DEIRAAVPVNEFAKHVASLHADGDIGFSREYEAIQNECISDDLPCEHSQHPENKRKNRYLNITAYDHSRVHLHPTPGQKKNLDYINANFIDGYQKGHAFIGTQGPLPDTFDCFWRMIWEQRVAIIVMITNLVERGRRKCDMYWPKDGVETYGVIQVKLIEEEVMSTYTVRTLQIKHLKLKKKKQCNTEKLVYQYHYTNWPDHGTPDHPLPVLNFVKKSSAANPAEAGPIVVHCSAGVGRTGTYIVLDAMLKQIQQKNIVNVFGFLRHIRAQRNFLVQTEEQYIFLHDALVEAIASGETNLMAEQVEELKNCTPYLEQQYKNIIQFQPKDIHIASAMKQVNSIKNRGAIFPIEGSRVHLTPKPGEDGSDYINASWLHGFRRLRDFIVTQHPMAHTIKDFWQMVWDHNAQTVVLLSSLDDINFAQFWPDEATPIESDHYRVKFLNKTNKSDYVSRDFVIQSIQDDYELTVKMLHCPSWPEMSNPNSIYDFIVDVHERCNDYRNGPIVIVDRYGGAQACTFCAISSLAIEMEYCSTANVYQYAKLYHNKRPGVWTSSEDIRVIYNILSFLPGNLNLLKRTALRTEFEDVTTATPDLYSKICSNG

Assays:
DLAR D1 D2HSS [1] = biological target: T4, DLAR D1 D2HSS (Drosophila melanogaster, UniProt P16621, C1961S); test: Surface Plasmon Resonance peptide binding, DLAR D1 D2HSS; settings: two-site model, read-out: ka
T4 construct: DLAR 1448-2029; His tag (pET-15b or pET-22b); made in house; host or cells: E. coli BL21(DE3)
Protocol: (§1) The binding of phosphotyrosine peptides to the PTP domains was studied by Surface Plasmon Resonance on a Biacore-2000 instrument (BIAcore, AB). All experiments were conducted at 25°C. DLAR PTP domains were immobilized onto carboxylated dextran CM5 chips (BIAcore AB) using the standard amine coupling procedure as recommended by the manufacturer. Binding and kinetic assays were performed in 10 mM HEPES, pH 8.0, 150 mM NaCl, 10 mM DTT and 3 mM EDTA at a flow rate of 5 µL/min. The peptides were used at concentrations ranging from 50–700 µM. Dissociation was initiated by replacing the analyte with buffer. The association and dissociation curves were monitored for 600 sec. Sensograms were analyzed with BIA-evaluation software version 2 (BIAcore AB). Sensograms for DLAR D1D2, DLAR D1HSSD2 and DLAR D1D2HSS were fitted to two-site binding equations. DLAR D1 and DLAR D2 sensograms were fitted using a single-site binding model.

DLAR D1D2 [2] = biological target: T1, DLAR D1D2; test: Dephosphorylation of phosphotyrosine peptides (malachite green), DLAR D1D2; format: biochemical; settings: 0.01 µM protein, 25 mM citrate pH 6.0, 15 min at 25°C, malachite green
Excerpt: (§2) Substrates of PTPs characterized thus far include the activation loop segments of various kinases and regulatory loops of other signaling proteins. Suitably designed peptide substrates mimic the physiologically relevant substrates of PTPs. In the present study, peptide substrates were designed for DLAR for which more information was available on its interacting partners. […] The five peptides were chosen based on their distinct charge distributions around the central phosphotyrosine residue. The phosphorylated as well as non-phosphorylated peptides were obtained from GL Bioscience, China. The peptides were >95% pure and were used after a single round of desalting using a Sephadex G25 column (GE Healthcare). The concentration of the peptide samples for biochemical studies was ascertained by UV absorption at 268 nm for the pY residue.
(§3) Phosphatase activity of the recombinant PTP domains was determined by using para-Nitrophenylphosphate (pNPP), a small molecule generic substrate, as well as phosphotyrosine containing peptides. The pNPP assay was performed as reported previously, with a modification in the buffer composition (25 mM Citrate, Glycine and HEPES (CGH), pH 6.5, 100 mM NaCl and 2 mM DTT). Phosphatase activity with the phosphotyrosine peptides was ascertained by the malachite green reaction as described for PTPs previously. Briefly, the reaction mixture comprised of 0.01 µM protein incubated with increasing concentrations of different peptides in 25 mM citrate buffer pH 6.0, 100 mM NaCl and 2 mM DTT for 15 min at 25°C. The reaction was stopped by the addition of the Biomol Green reagent (Enzo Life Sciences) and the colour developed after 20 min was quantified at 650 nm. For all the assays, kinetic constants for the steady state catalysis were obtained by fitting the reaction curves to the Michaelis-Menten equation using the nonlinear regression module of Sigma plot software (Systat Software, Inc.).

DLAR D1HSS D2 = biological target: T2, DLAR D1HSS D2; test: Surface Plasmon Resonance peptide binding, DLAR D1HSS D2; settings: two-site model, read-out: ka
Protocol: as §1

DLAR D1 = biological target: T3, DLAR D1; test: Dephosphorylation of phosphotyrosine peptides (malachite green), DLAR D1; format: biochemical; settings: 0.01 µM protein, 25 mM citrate pH 6.0, 15 min at 25°C, malachite green
Excerpt: as §2, §3

DLAR D1D2 [3] = biological target: T1, DLAR D1D2; test: Surface Plasmon Resonance peptide binding, DLAR D1D2; settings: two-site model; for kon: read-out: ka
Protocol: as §1

DLAR D1 D2HSS [4] = biological target: T4, DLAR D1 D2HSS; format: biochemical; settings: 0.01 µM protein, 25 mM citrate pH 6.0, 15 min at 25°C, malachite green
Excerpt: as §2, §3

[5] = substrate: CC(C)C[C@H](NC(=O)[C@H](C)NC(=O)CNC(=O)[C@H](Cc1ccc(OP(=O)(O)O)cc1)NC(=O)[C@H](CC(=O)O)NC(=O)[C@@H]1CCCN1C(=O)[C@H](CCC(=O)O)NC(=O)[C@H](C)NC(=O)[C@@H](N)[C@@H](C)O)C(=O)N[C@@H](Cc1ccc(O)cc1)C(=O)N[C@@H](CCC(=O)O)C(=O)O; test: purified protein, by the assay type; settings: other: 0.01 µM protein, 25 mM citrate pH 6.0, 15 min at 25°C, malachite green
Protocol: (§4) Phosphatase activity with the phosphotyrosine peptides was ascertained by the malachite green reaction as described for PTPs previously [14]. Briefly, the reaction mixture comprised of 0.01 µM protein incubated with increasing concentrations of different peptides in 25 mM citrate buffer pH 6.0, 100 mM NaCl and 2 mM DTT for 15 min at 25°C. The reaction was stopped by the addition of the Biomol Green reagent (Enzo Life Sciences) and the colour developed after 20 min was quantified at 650 nm. For all the assays, kinetic constants for the steady state catalysis were obtained by fitting the reaction curves to the Michaelis-Menten equation using the nonlinear regression module of Sigma plot software (Systat Software, Inc.).

[6] = substrate: CC[C@H](C)[C@H](NC(=O)[C@H](CC(=O)O)NC(=O)[C@H](CCCNC(=N)N)NC(=O)[C@@H](N)[C@@H](C)O)C(=O)N[C@@H](Cc1ccc(OP(=O)(O)O)cc1)C(=O)N[C@@H](CCC(=O)O)C(=O)N[C@H](C(=O)N[C@@H](CC(=O)O)C(=O)N[C@@H](Cc1ccc(O)cc1)C(=O)N[C@@H](Cc1ccc(O)cc1)C(=O)N[C@@H](CCCNC(=N)N)C(=O)N[C@@H](CCCCN)C(=O)O)[C@@H](C)O; test: purified protein, by the assay type; settings: other: 0.01 µM protein, 25 mM citrate pH 6.0, 15 min at 25°C, malachite green
Protocol: as §4

[7] = pH 8, SPR Biacore-2000, 25°C, 10 mM HEPES pH 8.0, 150 mM NaCl, 10 mM DTT, 3 mM EDTA, peptides 50–700 µM, first binding site
[8] = pH 8, SPR, 25°C, pH 8.0, second binding site

T4 sequence (P16621 1448-2029 C1961S): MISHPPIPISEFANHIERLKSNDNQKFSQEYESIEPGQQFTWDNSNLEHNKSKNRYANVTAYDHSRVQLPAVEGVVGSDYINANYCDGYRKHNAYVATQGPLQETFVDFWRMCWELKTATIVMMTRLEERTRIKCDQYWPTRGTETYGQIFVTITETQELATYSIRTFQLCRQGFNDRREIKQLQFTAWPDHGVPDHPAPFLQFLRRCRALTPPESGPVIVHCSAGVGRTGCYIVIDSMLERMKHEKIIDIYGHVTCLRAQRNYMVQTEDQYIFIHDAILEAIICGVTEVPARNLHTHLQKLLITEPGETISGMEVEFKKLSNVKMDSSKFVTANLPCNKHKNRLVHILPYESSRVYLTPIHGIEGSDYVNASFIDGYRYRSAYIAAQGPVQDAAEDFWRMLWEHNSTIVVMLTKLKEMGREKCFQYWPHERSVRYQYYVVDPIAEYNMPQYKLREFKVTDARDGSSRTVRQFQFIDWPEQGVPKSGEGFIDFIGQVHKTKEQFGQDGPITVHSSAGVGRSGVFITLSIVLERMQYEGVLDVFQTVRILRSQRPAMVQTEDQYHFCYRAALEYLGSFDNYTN

Molecule | kon (DLAR D1 D2HSS [1]; [7]) [M⁻¹ s⁻¹] | kon (DLAR D1 D2HSS [1]; [8]) [M⁻¹ s⁻¹] | Km (DLAR D1D2 [2]) [µM] | kon (DLAR D1HSS D2; [7]) [M⁻¹ s⁻¹] | kon (DLAR D1HSS D2; [8]) [M⁻¹ s⁻¹] | Km (DLAR D1) [µM] | Kd (DLAR D1D2 [3]; SPR, 25°C, pH 8.0, first binding site) [µM] | kon (DLAR D1D2 [3]; [7]) [M⁻¹ s⁻¹] | kon (DLAR D1D2 [3]; [8]) [M⁻¹ s⁻¹] | Km (DLAR D1 D2HSS [4]) [µM] | Km [5] [µM] | Vmax [5] [µmol/min/mg] | kcat [5] [s⁻¹] | kcat/Km [5] [M⁻¹ s⁻¹] | Km [6] [µM] | Vmax [6] [µmol/min/mg] | kcat [6] [s⁻¹] | kcat/Km [6] [M⁻¹ s⁻¹]
CC[C@H](C)[C@H](NC(=O)[C@H](CC(=O)O)NC(=O)[C@H](CCCNC(=N)N)NC(=O)[C@@H](N)[C@@H](C)O)C(=O)N[C@@H](Cc1ccc(OP(=O)(O)O)cc1)C(=O)N[C@@H](CCC(=O)O)C(=O)N[C@H](C(=O)N[C@@H](CC(=O)O)C(=O)N[C@@H](Cc1ccc(O)cc1)C(=O)N[C@@H](Cc1ccc(O)cc1)C(=O)N[C@@H](CCCNC(=N)N)C(=O)N[C@@H](CCCCN)C(=O)O)[C@@H](C)O [Insulin Receptor peptide] | 137 ± 2.84 | 12.3 ± 0.02 | 110 ± 7.82 | 72.6 ± 1.2 | 74.5 ± 1.6 | 59.5 ± 5.6 | 62.2 ± 0.48 | 110 ± 2.32 | 2860 ± 90000 | 45.3 ± 4.1 | – | – | – | – | – | – | – | –
B1 | – | – | – | – | – | – | – | – | – | – | 309.04 ± 33.32 | 1.26 | 0.84 ± 0.04 | 2718 ± 15 | 1017 ± 161.84 | 2.37 | 1.58 ± 0.11 | 1550 ± 22
B2 | – | – | – | – | – | – | – | – | – | – | 112.42 ± 10.14 | 17.1 | 21.1 ± 0.82 | 188000 ± 12900 | 35.75 ± 2.08 | 46 | 56.9 ± 1.03 | 1.638e+06 ± 7400
